Drawing on article PMC9254666, this text covers Kd for 1 molecule.

What is called Kd is the concentration at which binding is half-saturated.

This assay addresses p53 (Homo sapiens), P04637. As to the kind of experiment: ELISA. The note with it: remark: other sources report otherwise.

Sequence of p53 (Homo sapiens), P04637 (P04637 whole entry): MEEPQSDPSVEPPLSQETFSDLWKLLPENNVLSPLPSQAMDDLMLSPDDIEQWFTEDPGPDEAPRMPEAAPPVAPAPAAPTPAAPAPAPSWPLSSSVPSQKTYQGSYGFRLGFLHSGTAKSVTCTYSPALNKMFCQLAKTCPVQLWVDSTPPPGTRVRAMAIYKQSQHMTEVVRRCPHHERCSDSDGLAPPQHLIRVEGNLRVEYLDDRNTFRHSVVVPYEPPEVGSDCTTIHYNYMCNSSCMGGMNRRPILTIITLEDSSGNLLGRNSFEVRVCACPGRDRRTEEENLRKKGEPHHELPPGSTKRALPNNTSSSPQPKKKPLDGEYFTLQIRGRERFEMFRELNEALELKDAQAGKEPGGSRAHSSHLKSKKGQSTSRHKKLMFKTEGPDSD

B1: HDMX, O15151 (protein)
chain: MTSFSTSAQCSTSDSACRISPGQINQVRPKLPLLKILHAAGAQGEMFTVKEVMHYLGQYIMVKQLYDQQEQHMVYCGGDLLGELLGRQSFSVKDPSPLYDMLRKNLVTLATATTDAAQTLALAQDHSMDIPSQDQLKQSAEESSTSRKRTTEDDIPTLPTSEHKCIHSREDEDLIENLAQDETSRLDLGFEEWDVAGLPWWFLGNLRSNYTPRSNGSTDLQTNQDVGTAIVSDTTDDLWFLNESVSEQLGVGIKVEAADTEQTSEEVGKVSDKKVIEVGKNDDLEDSKSLSDDTDVEVTSEDEWQCTECKKFNSPSKRYCFRCWALRKDWYSDCSKLTHSLSTSDITAIPEKENEGNDVPDCRRTISAPVVRPKDAYIKKENSKLFDPCNSVEFLDLAHSSESQETISSMGEQLDNLSEQRTDTENMEDCQNLLKPCSLCEKRPRDGNIIHGRTGHLVTCFHCARRLKKAGASCPICKKEIQLVIKVFIA
In turn, B1 registered a Kd of 4.4 nM.
